Data published in the DeepSol protein solubility set.

Test: soluble on expression in E. coli; label from the status in PepcDB or PDB records

Row | Sequence | soluble on expression in E. coli
1 | GAHTVDKRFGMDFKEIELIGSGGFGQVFKAKHRIDGKTYVIKRVKYNNEKAEREVKALAKLDHVNIVHYNGCWDGFDYDPETSSKNSSRSKTKCLFIQMEFCDKGTLEQWIEKRRGEKLDKVLALELFEQITKGVDYIHSKKLINRDLKPSNIFLVDTKQVKIGDFGLVTSLKNDGKRTRSKGTLRYMSPEQISSQDYGKEVDLYALGLILAELLHVCDTAFETSKFFTDLRDGIISDIFDKKEKTLLQKLLSKKPEDRPNTSEILRTLTVWKKSPEKNERHTA | soluble
2 | MNHKVHHHHHHIDGRHHHHHHHIDGRHMQVSVETTQGLGRRVTITIAADSIETAVKSELVNVAKKVRIDGFRKGKVPMNIVAQRYGASVRQDVLGDLMSRNFIDAIIKEKINPAGAPTYVPGEYKLGEDFTYSVEFEVYPEVELQGLEAIEVEKPIVEVTDADVDGMLDTLRKQQATWKEKDGAVEAEDRVTIDFTGSVDGEEFEGGKASDFVLAMGQGRMIPGFEDGIKGHKAGEEFTIDVTFPEEYHAENLKGKAAKFAINLKKVEERELPELTAEFIKRFGVEDGSVEGLRAEVRKNMERELKSAIRNRVKSQAIEGLVKANDIDVPAALIDSEIDVLRRQAAQRFGGNEKQALELPRELFEEQAKRRVVVGLLLGEVIRTNELKADEERVKGLIEEMASAYEDPKEVIEFYSKNKELMDNMRNVALEEQAVEAVLAKAKVTEKETTFNELMNQQA | soluble
3 | MGSDKIHHHHHHMRRKIPSTTALVSFEAAARHESFTKAAHELSLTQGAVCRQIGGLEEFLGIELFRRSRRGVKLTEAGLSYSRRVAQQLDAVERDTLSVMGEQGAHAIELAVVPTFGTQWLLPRLKDFQHKHPDVTVHLTNRTRPFLFADTDFDAAIYFGDADWSGTQSHRLMGENSLPVCSPSFLGGRGSLKASELAELPLLQQTTRPYAWRQWFNAQNLNVARDMTGPRYELFSMLAQAAMHDMGVALIPPFLILRELHEKRLVIASISALPSNKAYHLMIPERKVESASLTAFRDWLVNQAHDYSLPQDKEQALV | not soluble
4 | MVSLRTSNRGIVMIDAVVTWVDGADPAHHAKRLRHQGEAGVHQAATAPTRFAHSGEIRFCVLSLLRFCPFVERIHIVTDDQHPAVLDPILDDPHWRDRIAVVDHRAIYGEHADLLPVFSSRSIETMIHRIPGLAPRFIYLNDDIFVGRPLDESHFFDGDRAVLRGRMQPFPNPLVTRLKRWLKRERPGYKTAQQAAARLTGRTSDYFLTEHQPHPMHRDRLASFYAGDPQALRRQAGHRFRSADQVSPIGLANHLEIEARAVIAPPLDVGYIRPGRPTGTALARTMERLCANGYASFCVQSLDAMSEADRRCVLEGLERHYALEHHHHHH | soluble
5 | QLDGLDVYVAGKADVNFLFDRYISTKTELRSTTYSNYLYTWNHFIRDTFGKKKVRDVKYSDVLFFYTDLINNQGLQINTLETINTVLRPTFQLAVRDDIIRKNPVDGAYCEVKKRNGGARKTRRALTVDQQRKFMEYVAKNPFFYHWYPFFVFLLGTGCRIGEAIGIRWDDIDLENRIIDINHSLTYYQRADDSYKCEFRVSLPKTEAGNRRIPMMQQVYDVLQEEYERQKQEGFCVENVDGMTNFVFTNRFGMPHNPAAVNRAIKR | not soluble
6 | GMVRYPLEPVLSIKKDRVDRAEKVVKEKRRLLELEQEKLRERESERDKVKNHYMQKIRQLREQLDDGTTSDAILKMKAYIKVVAIQLSEEEEKVNKQKENVLAASKELERAEVELTKRRKEEEKTRLHKEEWMKEALKEEARQEEKEQDEMGQLLHQLHKQKQRESGEN | soluble
7 | ASGSSFASTRKLLNRHSLHTVCRSAMCPNLHECWSKGTATFLLLGNVCTRSCRFCAVGTECRPAMPDPEEPSKIAEAVKTMKLRHAVLTSVNRDDLADGGATHWVETIRAIREVNPGVSLECLIPDFSGNEQSLDLVMQELPEVLNHNIETVPSRYAAVRPQALYERSLAVIERAKRQFRLATKSGMMVGMGETEEELEASLHDLRGHGCDMVTIGQYLQPTAAHLPVSRYVTPEEFERYREIALDAGFRHVQSGPFVRSSYHAEAFEPVEK | not soluble
8 | GPGSMPVANEASSFNVLYALNKCNPKRRRWMNGWLYVNFDRATLVDGISRKAVGVVSGTGLLPNKVFKMMVEADNGAAWEMGTEVVIGQYITQIEGTTRLHLIPYTLFSGVDCIDDNAAEEVSSVELAGSSMTSRVVNVTAGFSATRADAPLSRRKTTEQLISELRGAYPQIFI | not soluble
9 | KNFDGDLNDYRQWRLAQENAAVAPAASAQSQSRKDTKRIEAQIRQEKARRGKPIQQKIDRAEKEMAQLSEIQTACEAFLAQEEAYFEENKEKLQDTLSELAKVKTQLAQIEEVWLACQEELEQIETEIEKQFAER | not soluble
10 | MASASNKQLELWKQYADTKNPAIKEQLIIEYSNIVKYIAGRLSIYFGSNVEYDDLIGYGIFGLIDAIEKFDINKGVKFETYASLRIRGSIIDSIRELDWVPRSLRQKNKELEKVYAEIENELGRSASDKEVADKLGITVDELNKLLNEVNLSSMISLEEFLEQNYEIGVTTAPESRDEKPEGYIEMAELREILADAISKLPEKEKMVITLYYFGEVVK | soluble
11 | PAVKPVIGEVTPNSIVAEAGIESGMELKAVSGIKTPDWESVNMGLISHIGDDAMTLTLTSDSEVGAEVTKTLDLRDWKFDPETESAMHSLGFAPYTPEIYRVIKQVSEDGAAAKAGVLPEDEIIAIGGEPINDWKQVVDAVRSNPNTPIELTVLRRGIEQSLTLTPDSRELANKQVVGFAGIAPEVAEWPESYRFELQFGVFESIGKAVDKTGQVIGLTVSMLKKLIVGDVGLNNLSGPISIAKGAGATADYGL | not soluble
12 | MRKYAAIALCTSAILAGCNTSNVSQEPKKEKKVQEVAIQKEALQEQGKISYTPITHESTNTSIHITDLKDSLNEVQYKIWRTADGKERAKSFSSKEKEKQFTIPFDIKEFEGKRGEFQIEATGMKEDGKTIPLTKSIITFEQKVPVLMYHAIDDYHGQGIKDLFVSPANFEAQMKHLKDNGYTLLTFERWGDINKVNKPIFVTFDDGMKNNMNAFRVLQKLKDDTFKPAATEYMIVDNVDVEGALSTSEIKEMVDSGIFSVQSHTATHADLPKITNYEEELKGSKEKLEKITGKPVIAIAYPFGHVDDKVVTETKKYYQFATTTKPGQFITKGEPDELLKMKRVRIHHTTTVEQFASSIK | not soluble
13 | MIEERFDAIVVGAGMAGNAAALTMAKRGLKVLQIERGEYPGSKNVQGAILYADMLEKLVPDFREDAPLERHLVEQRFWMMDGKSHTGLHHRSEDFNEEKPNRYTIIRAQFDKWLSSKAQEAGAIVLCETTVKELVQDAYGKVIGVITDREGGQVHADVVVLAEGVNGLLGTKAELRERPTPENVALAVKEMHFLPRETIEARFNLKGDEGVVIEAAGTISAGMTGMGFIYTNKESISIGIGCLVSDFQKTGETPYGLLERFKKHPSVAPLIEGSEVKEYAGHLIPEGGYNAIPQLYGDGWVVVGDAAQLNNAMHREGSNLAMTSGRIAAEAIFQVKSRKDPMTKENLALYKKMLDDSFVIKDLKKYKDMPDLLHIRSQNFFLTYPQLVNKALQNFVRVDGTPKIEKEKTTIKSFVSARSWGGLFGDAFRFARAWR | not soluble
14 | MGSDKIHHHHHHMRILWINHRDPKHPQAGGAEVRLYEIARRLVKMGHEVMVLCEKVSRLPGEEVLEGIRIKRSGGRASIHLLAPLYVRKHGHEYDVIVDDIAHAVPWYSPLVTKTPVVAQIHHVHQDVVYIELPKPLAWIVSRAEKTIAKIYRRFIAVSQSTKKELAKRLGIDPDRIAVVPNGVDLEKYRPGSKDPRPTILWAGRIKMYKNLDHLLKAYRIVKQEIPDAQLIIIGTGDQEQKMRELAKKLEPRDVHFLGKMSEQEKIMWMQRAWIIVSTSMIEGWGITITEAAACKIPAIAYNVPGLRDSVKHMETGILVEPGNIEQLAKAIAWLLTDNSLRNKLSENAYNYAQSFSWDNTAITFLNILEDITRI | not soluble
15 | SCQSEKHPGPELQAAEKWLYFPQLALWRRLGQLSCMSRPALNLRSWLLTILHYLLPFRVLGPHSQVGWRPLSRVSLYKTVPTRLLSRACGRLNQVELPYWLWRPVYSLYIWTFGVNMTEAAVEDLHHYHNLSEFFWHQPIMARSSPLGR | not soluble
16 | MTTAFFVAADWLAEHIDDPEIQILDARMAPPGQEHRDMAGEYRAGHIPGALFFDIEALSDRASPLPHMMPRPEAFAVAMRELGVRQDKHLVIYDEGNLFSAPRAWWMLRTFGAEKVSILAGGLAGWQRDEWLLREGEEAHEGGEFEAKFAPQAVVRLTDVLLASHEKTAQIVDARPAARFNAQADEPRPGLRRGHIPGALNVPWTELVYEGELKTTDELNEVFFSHGVSFDRPIIASCGSGVTAAVVVLALATLDVPDVTLYDGAWSEWGARTDLPVEPA | not soluble
17 | AMGSVTVHSSEPEVRIPENNPVKLSCAYSGFSSPRVEWKFDQGDTTRLVCYNNKITASYEDRVTFLPTGITFKSVTREDTGTYTCMVSEEGGNSYGEVKVKLIVLVPPSKPTVNIPSSATIGNRAVLTCSEQDGSPPSEYTWFKDGIVMPTNPKSTRAFSNSSYVLNPTTGELVFDPLSASDTGEYSCEARNGYGTPMTSNAVRMEAVE | soluble
18 | MSLEFYIADFKQIKEGKVTDIYFERTLKTLEYLGIKDAKVRMEVHSYGLPKGYEWALFTGLEEVLHLLEGVPVNVYAMPEGTLFKEIEPVMIIEGNYLDFGIYETAFLGILRHYSSISTKAARLKFLAMDKTLFFFGLRSLHPALAPMADRAAYIGGMDGVSGAMSKEYLGVDPSGTMPHALMLIVGDNVKAWKAFDEAMGSEVPRITLVDTFEDERTEALKAATLLGKKLYGIRLDTPSSRRGNFRKIIQEVKWTLKIHGYDHVKIFASGGIDEDDIINLRDIVDGFGIGTSIAFPPSVDFSADIVEKFVDGKWVPFTKRGKWPGAKQVYRCGKLNDVITLMDQEHPSSDCKPLLQKYMENGKIIKPLPSPKEIREYVIKQLTELQSSEGHHHHHH | soluble
19 | MGSDKIHHHHHHMSAMLTVEGLGKSYRVWGSEWLRAASWFGLKVKPREEHWVLRNVGFSVTAGESIGIMGRNGAGKSTLLKLITGTSQPTEGRIVRRGRIAAILELGMGFNPDLSGRENARHSAGLMGYTLDQIEAVLPEIQEFAEIGDYFDEPVRTYSSGMQVRVAFAVATAFRPDVLIVDEALSVGDVYFQAKCFKRILSFKEKGMTLILVSHSVGDVVKHCDRAILIKDGGVYADGPSREVSNLYLDELFGKKPASLQAEAKDTPKDLRAGTEDLFHTRPYYNAGEHRWGQGGARILDYVVVSDGQEFPARVESGSRTAFYVKIAFDQDFDSVVPGILVKTLEGLFLYGTNSFLSSEGRTGIAAKAGDVIVCKFTMPLDLNEANYLISLGISSGDPLVELTPLDRRYDAIVLNVARGMQFWGMMDLKADFEIVEALS | not soluble
20 | MLFTISENVKEAAQYFVEYKIQSVSDLKEFARVMKEYERKGDSFIHELVVQLNKTFITPIEREDIHQLAMKMDDVLDGFEQCSARFEMFSFTEIDEHMAKFFDYIYQSTIEIVHALELLANKKLLDMRQHAIKIKDYETKCDEILRASIKNLFVTQKDPIKIIQYKELYEMLEEIADSCEDVANTLETIIMRNA | not soluble
21 | MRCKGFLFDLDGTLVDSLPAVERAWSNWARRHGLAPEEVLAFIHGKQAITSLRHFMAGKSEADIAAEFTRLEQIEATETEGITALPGAIALLNHLNKAGIPWAIVTSGSMPVARARHKIAGLPAPEVFVTAERVKRGKPEPDAYLLGAQLLGLAPQECVVVEDAPAGVLSGLAAGCHVIAVNAPADTPRLNEVDLVLHSLEQITVTKQPNGDVIIQ | not soluble
22 | METNRPSPDALLVNLQEEADSSVGKLKIYFGFAAGVGKTYAMLSDAKDQLAAGVDVVAGYIEPHAREETLRMLEGIPIIPPKAINHKNIALKEFDLDEALKRKPELILVDELAHTNASGVRNKKRFQDVEELLQAGIDVYTTVNVQHIESLNDIVEGITKVAVRETIPDYVFDEADRVKLIDIEPDELLKRLEQGKIYQPARAKTAMQNFFTRENLKLLREIAMRKAADRI | not soluble
